Assay results from patent JP2018108089A (dated 2018).

T1: human tissue factor pathway inhibitor (TFPI) (human, UniProt P10646 29-304, limits assumed)
T1 construct: Bought protein; also called human TFPI; hTFPI
T1 sequence (looked up): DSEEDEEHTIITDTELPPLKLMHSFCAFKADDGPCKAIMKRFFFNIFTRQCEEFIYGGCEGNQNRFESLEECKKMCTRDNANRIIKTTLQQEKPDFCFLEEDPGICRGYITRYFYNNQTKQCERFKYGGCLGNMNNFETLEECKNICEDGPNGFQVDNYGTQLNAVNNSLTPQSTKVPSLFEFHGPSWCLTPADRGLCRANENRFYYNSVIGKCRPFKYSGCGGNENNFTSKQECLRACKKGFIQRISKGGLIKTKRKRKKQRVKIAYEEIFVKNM

T2: mouse tissue factor pathway inhibitor (TFPI) (mouse, UniProt O54819 29-289, limits assumed)
T2 construct: Bought protein; also called mouse TFPI; mTFPI
T2 sequence (looked up): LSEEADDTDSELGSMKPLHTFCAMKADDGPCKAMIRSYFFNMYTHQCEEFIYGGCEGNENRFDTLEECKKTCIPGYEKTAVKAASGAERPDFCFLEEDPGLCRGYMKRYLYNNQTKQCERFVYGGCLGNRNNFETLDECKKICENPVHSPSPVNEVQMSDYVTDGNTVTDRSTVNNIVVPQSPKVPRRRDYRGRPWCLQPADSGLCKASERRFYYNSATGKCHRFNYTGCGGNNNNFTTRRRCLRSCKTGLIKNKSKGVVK

B1: TP-4B7 (Fab, V domains shown)
VH: QVQLQQSGPGLVKPSQTLSLTCAISGDSVSSNSAAWSWIRQSPGRGLEWLGIIYKRSKWYNDYAVSVKSRITINPDTSKNQFSLQLNSVTPEDTAVYYCARWHSDKHWGFDYWGQGTLVTVSS
VL: DIVMTQSPLSLPVTPGEPASISCRSSQSLVFSDGNTYLNWYLQKPGQSPQLLIYKGSNRASGVPDRFSGSGSGTDFTLKISRVEAEDVGVYYCQQYDSYPLTFGQGTKVEIKR
notes: Human Fab (HuCAL Gold, E. coli TG1)
B2: TP-2G6 (Fab, V domains shown)
VH: QVQLQQSGPGLVKPSQTLSLTCAISGDSVSSSSAAWSWIRQSPGRGLEWLGIIYYRSKWYNDYAVSVKSRITINPDTSKNQFSLQLNSVTPEDTAVYYCARHSMVGFDVWGQGTLVTVSS
VL: DIVLTQSPATLSLSPGERATLSCRASQYVTSSYLAWYQQKPGQAPRLLIYGSSRATGVPARFSGSGSGTDFTLTISSLEPEDFATYYCQQYSSSPITFGQGTKVEIKR
notes: Human Fab (HuCAL Gold, E. coli TG1); also called 2G6-Fab
B3: 2G6-IgG (antibody, V domains shown)
VH: QVQLQQSGPGLVKPSQTLSLTCAISGDSVSSSSAAWSWIRQSPGRGLEWLGIIYYRSKWYNDYAVSVKSRITINPDTSKNQFSLQLNSVTPEDTAVYYCARHSMVGFDVWGQGTLVTVSS
VL: DIVLTQSPATLSLSPGERATLSCRASQYVTSSYLAWYQQKPGQAPRLLIYGSSRATGVPARFSGSGSGTDFTLTISSLEPEDFATYYCQQYSSSPITFGQGTKVEIKR
notes: Chimeric IgG: variable regions of TP-2G6 on mouse IgG1 constant regions, expressed in HKB11 cells; also called IgG-2G6; TP-2G6 after conversion to IgG
B4: TP-2A8 (Fab, V domains shown)
VH: QVQLVESGGGLVQPGGSLRLSCAASGFTFRSYGMSWVRQAPGKGLEWVSSIRGSSSSTYYADSVKGRFTISRDNSKNTLYLQMNSLRAEDTAVYYCARKYRYWFDYWGQGTLVTVSS
VL: DIELTQPPSVSVAPGQTARISCSGDNLRNYYAHWYQQKPGQAPVVVIYYDNNRPSGIPERFSGSNSGNTATLTISGTQAEDEADYYCQSWDDGVPVFGGGTKLTVLG
notes: Human Fab (HuCAL Gold, E. coli TG1); also called Fab-2A8; TP-2A8-Fab

How the values were obtained:
[1] = biological target: T1, human tissue factor pathway inhibitor …; test: ELISA, Fab from bacterial lysate on coated human TFPI
[2] = biological target: T1, human tissue factor pathway inhibitor …; test: ELISA on coated human TFPI
[3] = biological target: T2, mouse tissue factor pathway inhibitor …; test: ELISA on coated mouse TFPI
[4] = biological target: T2, mouse tissue factor pathway inhibitor …; test: ELISA on coated mouse TFPI, IgG against Fab
[5] = biological target: T1, human tissue factor pathway inhibitor …; test: ELISA on coated human TFPI, IgG against Fab

| Binder | binding result [1] | EC50 [2] [pM] | EC50 [3] [pM] | fold improvement of EC50 against 2G6-Fab [4] [fold] | fold improvement of EC50 against 2G6-Fab [5] [fold] |
| --- | --- | --- | --- | --- | --- |
| B1 | binds |  |  |  |  |
| B2 |  | 480 | 5180 |  |  |
| B3 |  | 220 | 510 | 10 | 2 |
| B4 | binds |  |  |  |  |
